From PMC5575113
One block for each substance: values may come before it.

Assays:
GroES^7I25A1 (E. coli) [1] = target: GroES^7I25A1 (E. coli)
GroES^7I25A1 (E. coli) [2] = target: GroES^7I25A1 (E. coli); remark: listed apart in the source
GroESI25A (E. coli) = GroESI25A (E. coli) (UniProt P0A6F9); test: MST; cochaperonin labelled with DyLight 650; unlabelled GroEL or GroEL^SR in a serial dilution of 15 samples; 50 mM TrisCl pH 7.5, 100 mM KCl, 10 mM MgCl2, 1 mM EDTA, 2 mM ADP, 0.5 mg/mL BSA; 30 min incubation
GroESL27A (E. coli) = GroESL27A (E. coli) (UniProt P0A6F9); test: as above
GroES^7I25A1,2 (E. coli) [3] = test: as above
GroES^7I25A1,3 (E. coli) [4] = test: as above
GroES^7I25A1,4 (E. coli) [5] = test: as above
[6] = target: GroES^7I25A_(1,4,6) (E. coli); test: as above
[7] = target: GroES^7I25A_(1,4,7) (E. coli); test: as above
GroES^7I25D1,3 (E. coli) = test: MST; cochaperonin labelled with DyLight 650, unlabelled GroEL or GroEL^SR titrated (serial dilution of 15 samples), 30 min incubation; 50 mM TrisCl pH 7.5, 100 mM KCl, 10 mM MgCl2, 1 mM EDTA, 2 mM ADP, 0.5 mg/mL BSA; Monolith NT115, 80% LED, 40% IR-laser
GroES^7I25D1,4 (E. coli) = test: as above
[8] = target: GroES^7I25D1,4,7 (E. coli); test: as above
GroES^7I25A1 (E. coli) [9] = target: GroES^7I25A1 (E. coli); remark: listed apart in the source
GroES^7I25A1,2 (E. coli) [10] = target: GroES^7I25A1,2 (E. coli)
GroES^7I25A1,3 (E. coli) [11] = target: GroES^7I25A1,3 (E. coli)
GroES^7I25A1,4 (E. coli) [12] = target: GroES^7I25A1,4 (E. coli)
[13] = target: GroES^7I25A_(1,4,6) (E. coli)
[14] = target: GroES^7I25A_(1,4,7) (E. coli)
GroES^7 (E. coli) [15] = test: MST; cochaperonin labelled with DyLight 650; unlabelled GroEL or GroEL^SR in a serial dilution of 15 samples; 50 mM TrisCl pH 7.5, 100 mM KCl, 10 mM MgCl2, 1 mM EDTA, 2 mM ADP, 0.5 mg/mL BSA; 30 min incubation
GroES^7I25A1 (E. coli) [16] = test: as above
GroES^7 (E. coli) [17] = test: MST; cochaperonin labelled with DyLight 650, unlabelled GroEL or GroEL^SR titrated (serial dilution of 15 samples), 30 min incubation; 50 mM TrisCl pH 7.5, 100 mM KCl, 10 mM MgCl2, 1 mM EDTA, 2 mM ADP, 0.5 mg/mL BSA; Monolith NT115, 80% LED, 40% IR-laser
GroES^7I25A1,2 (E. coli) [18] = test: as above
GroES^7I25A1,3 (E. coli) [19] = test: as above
GroES^7I25A1,4 (E. coli) [20] = test: as above
GroES^7I25D1 (E. coli) = test: as above
GroES^7I25D1,2 (E. coli) = test: as above

Sequence of GroEL (P0A6F5 whole entry): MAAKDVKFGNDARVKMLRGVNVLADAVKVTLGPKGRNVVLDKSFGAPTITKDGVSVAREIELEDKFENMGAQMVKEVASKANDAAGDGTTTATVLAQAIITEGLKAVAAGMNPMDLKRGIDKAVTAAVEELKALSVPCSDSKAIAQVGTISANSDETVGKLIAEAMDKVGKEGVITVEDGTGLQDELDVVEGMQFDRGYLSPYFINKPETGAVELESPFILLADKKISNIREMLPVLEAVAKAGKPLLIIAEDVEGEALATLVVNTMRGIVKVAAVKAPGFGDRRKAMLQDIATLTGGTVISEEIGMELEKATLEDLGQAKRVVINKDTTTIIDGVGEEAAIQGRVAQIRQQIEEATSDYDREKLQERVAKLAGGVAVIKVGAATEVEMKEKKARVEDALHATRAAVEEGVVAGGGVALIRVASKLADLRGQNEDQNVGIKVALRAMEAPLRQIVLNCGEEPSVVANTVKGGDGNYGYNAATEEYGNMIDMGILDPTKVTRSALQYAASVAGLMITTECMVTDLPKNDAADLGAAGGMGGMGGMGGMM

ATPase activity of GroEL left in the presence of the variant (GroES^7I25A1 (E. coli) [1]): 53.2% | yield of GroEL-mediated MDH folding (GroES^7I25A1 (E. coli) [2]): 72% | Kd (GroESI25A (E. coli)): > 5000 nM | Kd (GroESL27A (E. coli)): > 5000 nM | fold reduction of affinity against GroES^7 (GroES^7I25A1,2 (E. coli) [3]): 2 fold | fold reduction of affinity against GroES^7 (GroES^7I25A1,3 (E. coli) [4]): 2 fold | fold reduction of affinity against GroES^7 (GroES^7I25A1,4 (E. coli) [5]): 2 fold | fold reduction of affinity against GroES^7 [6]: > 25 fold | fold reduction of affinity against GroES^7 [7]: > 25 fold | Kd (GroES^7I25D1,3 (E. coli)): 13.3 nM | Kd (GroES^7I25D1,4 (E. coli)): 9.58 nM | Kd [8]: 40 nM
Substance: GroEL (from UniProt P0A6F5 1-548) (natural protein)

inhibition of the ATPase of GroEL^SR (GroES^7I25A1 (E. coli) [9]): 80% | inhibition of the ATPase of GroEL^SR (GroES^7I25A1,2 (E. coli) [10]): 50% | inhibition of the ATPase of GroEL^SR (GroES^7I25A1,3 (E. coli) [11]): 50% | inhibition of the ATPase of GroEL^SR (GroES^7I25A1,4 (E. coli) [12]): 50% | inhibition of the ATPase of GroEL^SR [13]: 20% | inhibition of the ATPase of GroEL^SR [14]: 20% | Kd (GroES^7 (E. coli) [15]): 3.7 nM | Kd (GroES^7I25A1 (E. coli) [16]): 8.5 nM | fold reduction of affinity against GroES^7 (GroES^7I25A1,2 (E. coli) [3]): > 10 fold | fold reduction of affinity against GroES^7 (GroES^7I25A1,3 (E. coli) [4]): > 10 fold | fold reduction of affinity against GroES^7 (GroES^7I25A1,4 (E. coli) [5]): > 10 fold | Kd (GroES^7 (E. coli) [17]): 4.54 nM | Kd (GroES^7I25A1,2 (E. coli) [18]): 35 nM | Kd (GroES^7I25A1,3 (E. coli) [19]): 39.7 nM | Kd (GroES^7I25A1,4 (E. coli) [20]): 51.3 nM | Kd (GroES^7I25D1 (E. coli)): 25.6 nM | Kd (GroES^7I25D1,2 (E. coli)): 38.7 nM | Kd (GroES^7I25D1,3 (E. coli)): 71.9 nM | Kd (GroES^7I25D1,4 (E. coli)): 73.1 nM
Substance: GroEL^SR (GroEL R452A/E461A/S463A/V464A) (from UniProt P0A6F5 1-548) (natural protein)
